Patent US8871909B2, “Antibodies inhibiting c-Met dimerization and uses thereof” (Pierre Fabre Medicament, priority 2007, dated 2014)

What was measured:
[1] = tested on: NCI-H441; assay: In vivo combination of 224G11 and Navelbine on NCI-H441 xenograft model (Example 19); design: species or system Athymic nude mice; details: day 41 post first injection
Method: NCI-H441 cells from ATCC were routinely cultured in RPMI 1640 medium, 10% FCS, 1% L-Glutamine. Cells were split two days before engraftment being in exponential phase of growth. Ten million NCI-H441 cells were engrafted to Athymic nude mice. […] Mice were treated i.p. either with a loading dose of 2 mg of 224G11 Mab/mouse and then twice a week with 1 mg of antibody/mouse until Day 38 or with 3 injections of Navelbine® (D5, D12, D19) at 8 mg/kg. A third group administered with the combine treatment was also included. Navelbine® was given by i.p. injections. Tumor volume was measured twice a week and calculated by the formula: π/6×length×width×height and animal weights were monitored every day over the period of Navelbine® treatment. Statistical analysis was performed at each measured time using either a t-test or a Mann-Whitney test. […] Results are represented in FIG. 45.

[2] = target: T1, recombinant c-Met-Extra-Cellular Domain (ECD) fused to an human IgG Fc domain (Homo sapiens, UniProt P08581); assay: Determination of affinity constants (KD) by Biacore analysis; type: binding; details: first column; Fab fragments, 25° C.
T1 construct: recombinant c-Met-Extra-Cellular Domain (ECD) fused to an human IgG Fc domain (R&D Systems) as antigen; purchased R&D Systems
T1 sequence (P08581 25-932 limits assumed): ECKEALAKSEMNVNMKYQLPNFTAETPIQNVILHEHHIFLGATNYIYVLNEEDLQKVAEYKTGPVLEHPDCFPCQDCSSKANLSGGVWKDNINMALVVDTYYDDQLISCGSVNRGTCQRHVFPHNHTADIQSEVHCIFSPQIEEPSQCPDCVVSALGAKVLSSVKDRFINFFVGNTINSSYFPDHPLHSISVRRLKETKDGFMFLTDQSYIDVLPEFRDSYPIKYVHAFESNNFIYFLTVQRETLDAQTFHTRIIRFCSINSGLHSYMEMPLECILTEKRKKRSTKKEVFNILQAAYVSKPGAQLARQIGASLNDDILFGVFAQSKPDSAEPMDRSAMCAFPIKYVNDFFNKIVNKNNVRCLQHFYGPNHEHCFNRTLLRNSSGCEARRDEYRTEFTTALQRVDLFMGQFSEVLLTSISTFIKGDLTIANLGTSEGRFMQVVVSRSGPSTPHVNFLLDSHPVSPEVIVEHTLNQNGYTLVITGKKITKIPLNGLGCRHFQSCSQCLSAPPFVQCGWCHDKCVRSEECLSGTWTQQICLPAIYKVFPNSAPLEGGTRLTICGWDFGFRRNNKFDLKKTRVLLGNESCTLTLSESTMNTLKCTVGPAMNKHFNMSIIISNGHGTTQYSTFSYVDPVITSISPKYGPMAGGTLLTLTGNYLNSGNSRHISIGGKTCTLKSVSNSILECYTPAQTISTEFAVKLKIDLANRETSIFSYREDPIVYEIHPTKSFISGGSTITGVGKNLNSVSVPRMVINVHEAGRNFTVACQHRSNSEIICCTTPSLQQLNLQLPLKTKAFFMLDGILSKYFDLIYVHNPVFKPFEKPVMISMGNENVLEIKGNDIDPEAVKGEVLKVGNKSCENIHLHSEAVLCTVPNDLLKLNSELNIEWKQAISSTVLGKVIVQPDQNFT
From the text: The binding affinity of purified 11E1 and 224G11 antibodies was investigated by BIAcore X using recombinant c-Met-Extra-Cellular Domain (ECD) fused to an human IgG Fc domain (R&D Systems) as antigen (MW=129 kDa). As both c-Met-Fc fusion proteins and antibodies are bivalent compounds, Fab fragments of mAbs 11E1 and 224G11 (MW=50 kDa) were generated by papain cleavage, purified and used in this assay to avoid interference with avidity parameter. For the assay, an anti-Tag histidine capture antibody was coated on CM5 sensorchips. The running buffer was HBS-EP, the flow rate was 30 μl/min and the test was performed at 25° C. Soluble c-Met (ECD_M1)2-Fc-(HHHHHH)2 antigen was captured on the sensorchip (around 270 RU), and the antibodies to be tested were used in solution as analytes. The sensorship was regenerated using Glycine, HCl pH 1.5 buffer on both flowcells for half a minute.

[3] = tested on: BxPC3 cells; assay: In vitro inhibition of BxPC3 proliferation ([3H]thymidine incorporation); type: cell-based; details: BxPC3, in absence of ligand, antibody alone
Method: For that purpose 50 000 BxPC3 cells were plated in 96 well plates in RPMI medium, 2 mM L. Glutamine, without SVF. […] After 3 days, cells were pulsed with 0.5 μCi of [^3H]thymidine for 16 hours. The magnitude of [^3H]thymidine incorporated into trichloroacetic acid-insoluble DNA was quantified by liquid scintillation counting. Results were expressed as raw data to really evaluate the intrinsic agonistic effect of each Mab (FIGS. 2A and 2B).

[4] = target: T2, HGF-cMet (Homo sapiens, UniProt P08581); assay: HGF-cMet competition assay (ELISA); type: binding; details: at high antibody concentration, purified murine antibodies
T2 construct: recombinant c-Met-Extra-Cellular Domain (ECD) fused to an human IgG Fc domain
T2 sequence (P08581 25-932 limits assumed): as above
From the text: FIG. 54: HGF-cMet competition assay. In this ELISA-based assay, recombinant Fc-cMET residual binding to plastic coated HGF in the presence of purified murine monoclonal antibodies 11E1, 224G11 and 227H1 was detected with […] and measured at 450 nm;
FIG. 58: HGF-cMet competition assay of 227H1 murine and recombinant antibodies. In this ELISA-based assay, recombinant Fc-cMet residual binding to plastic coated HGF in the presence of the different forms of the 227H1 antibody was detected with a biotinylated unrelated anti-cMet antibody. Purified murine 227H1 monoclonal antibody, chimeric and HZ4VH-derived humanized 227H1-derived recombinant antibodies were tested and compared for their abilities to compete with HGF-cMet binding when measured at 450 nm;
Humanization of the anti-cMet antibodies were performed independently for each chain and sequentially, regarding to the analysed amino acids in each variable domain. The humanization process was evaluated in a first attempt in an ELISA-based binding assay to recombinant Fc-cMet; binding activities the humanized antibodies being compared to the recombinant chimeric antibody. In a second attempt, anti-cMet humanized antibodies were evaluated for their abilities to displace the Fc-cMet binding onto plastic-coated recombinant HGF; this competition assay allowing the direct comparison of murine, chimeric and humanized versions of the anti-cMet antibodies.
These two assays were used to characterize the recombinant chimeric and humanized versions of the murine anti-cMet antibodies. To this end, briefly, anti-cMet variable domains, either murine or humanized, were cloned into LONZA's pCONplus expression vectors series and recombinant IgG1/κ-derived antibodies were expressed in CHO cells. […] Both direct binding and HGF-competition assays were assessed to better characterize recombinant chimeric or humanized versions.

[5] = target: T3, SEMA domain (Homo sapiens, UniProt P08581); assay: ELISA recognition of recombinant SEMA domain; type: binding
T3 construct: the recombinant c-Met-Fc protein and the recombinant SEMA domain
T3 sequence (P08581 27-515 limits assumed): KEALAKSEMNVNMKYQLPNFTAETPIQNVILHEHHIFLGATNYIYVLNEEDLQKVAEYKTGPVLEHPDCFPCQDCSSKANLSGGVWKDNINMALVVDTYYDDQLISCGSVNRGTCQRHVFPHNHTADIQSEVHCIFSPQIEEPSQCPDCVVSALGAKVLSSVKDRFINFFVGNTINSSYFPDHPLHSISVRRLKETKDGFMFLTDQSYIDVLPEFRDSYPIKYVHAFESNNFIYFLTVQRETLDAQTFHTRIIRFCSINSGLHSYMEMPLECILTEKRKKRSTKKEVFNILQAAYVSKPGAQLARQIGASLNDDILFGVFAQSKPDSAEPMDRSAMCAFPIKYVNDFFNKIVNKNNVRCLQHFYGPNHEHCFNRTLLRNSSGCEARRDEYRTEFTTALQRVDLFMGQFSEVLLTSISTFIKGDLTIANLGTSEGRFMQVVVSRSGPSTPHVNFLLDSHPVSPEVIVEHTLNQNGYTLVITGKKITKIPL
Method: To characterize the pattern of recognition of the 3 selected antibodies, 3 ELISA have been set up with the recombinant c-Met protein, its monomeric fragment (obtained by cleavage of the recombinant c-Met-Fc protein and the recombinant SEMA domain.
To perform these ELISA the human dimeric c-Met protein (R&D sytems, cat#358MT) is coated at the concentration of 0.7 μg/ml in PBS overnight at 4° C. After saturation of the plates (Costar #3690) with a 0.5% gelatin solution 2 hours at 37° C., hybridoma supernatants are incubated 1 hour at 37° C. Once rinsed with PBS, the anti-mouse HRP-antibody (Jackson ImmunoResearch, catalog #115-035-164) is added to each well at a 1/5000 dilution in ELISA buffer (0.1% gelatin/0.05% Tween 20 in PBS) and the plates incubated for 1 hour at 37° C. […] The reaction is left to occur for 5 min at room temperature. The reaction is stopped by the addition of 50 μl/well of a 1 M H2SO4 solution and read on a plate reader at 450 nm. The same kind of protocol was performed on monomeric c-Met and SEMA domain but in that cases proteins were coated at 5 and 3 μg/ml respectively.

[6] = tested on: NCI-H441; assay: NCI-H441 xenograft model (Example 11)
From the text: The evaluation of anti-c-met antibodies on the in vivo activity of this non autocrine cell line could give some insights about their potency to impact on c-met dimerization.

[7] = tested on: A549 cells; assay: Matrigel invasion assay with A549 cells; type: cell-based; details: A549, Mab 10 μg/ml, basal (no HGF)
Method: To evaluate the inhibiting effect of the anti-c-Met antibodies on the invasion process, A549 cells were plated in the upper chamber of BD BioCoat™ Matrigel™ invasion chambers (6.5 mm diameter wells with 8-μm pre size polycarbonate membranes). A459 cells were starved 24 hours before performing the invasion assay. Then 500 000 A549 cells were plated in chemotaxis buffer (DMEM medium, 0.1% BSA, 12 mM Hepes) in the upper well of each chamber, upon the Matrigel coating either with or without the antibody to be tested (final Mab concentration 10 μg/ml). After 1 hour incubation of the plates at 37° C. with 5% CO2, the lower chambers were filled with either growth medium containing 400 ng/ml of rhHGF or with growth medium alone. The chambers were incubated for 48 additional hours at 37° C. with 5% CO2. At the end of this incubation time, cells that remained on upper surface of the filter were gently removed with a cotton swab, cells that migrated to the lower surface of the filter were lysed, stained with CyQuant GR dye buffer (Invitrogen) and counted using a fluorescence reader Berthold Mithras LB940. All conditions were tested as triplicates.

[8] = tested on: c-Met; assay: BRET analysis of c-Met dimerization on c-Met transfected CHO cells; type: cell-based; details: CHO cells expressing C-Met-Rluc and C-Met-K1100A-YFP, supernatants
c-Met, sequence (P08581 25-307 limits assumed): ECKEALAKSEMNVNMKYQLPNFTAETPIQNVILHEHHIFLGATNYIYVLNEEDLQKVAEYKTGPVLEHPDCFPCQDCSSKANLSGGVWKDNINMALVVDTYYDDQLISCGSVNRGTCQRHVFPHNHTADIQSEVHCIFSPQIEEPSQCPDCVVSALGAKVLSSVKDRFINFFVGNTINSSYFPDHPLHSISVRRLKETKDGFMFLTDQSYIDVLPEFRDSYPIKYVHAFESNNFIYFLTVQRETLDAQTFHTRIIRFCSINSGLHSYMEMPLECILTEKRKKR
c-Met, sequence (P08581 308-932 limits assumed): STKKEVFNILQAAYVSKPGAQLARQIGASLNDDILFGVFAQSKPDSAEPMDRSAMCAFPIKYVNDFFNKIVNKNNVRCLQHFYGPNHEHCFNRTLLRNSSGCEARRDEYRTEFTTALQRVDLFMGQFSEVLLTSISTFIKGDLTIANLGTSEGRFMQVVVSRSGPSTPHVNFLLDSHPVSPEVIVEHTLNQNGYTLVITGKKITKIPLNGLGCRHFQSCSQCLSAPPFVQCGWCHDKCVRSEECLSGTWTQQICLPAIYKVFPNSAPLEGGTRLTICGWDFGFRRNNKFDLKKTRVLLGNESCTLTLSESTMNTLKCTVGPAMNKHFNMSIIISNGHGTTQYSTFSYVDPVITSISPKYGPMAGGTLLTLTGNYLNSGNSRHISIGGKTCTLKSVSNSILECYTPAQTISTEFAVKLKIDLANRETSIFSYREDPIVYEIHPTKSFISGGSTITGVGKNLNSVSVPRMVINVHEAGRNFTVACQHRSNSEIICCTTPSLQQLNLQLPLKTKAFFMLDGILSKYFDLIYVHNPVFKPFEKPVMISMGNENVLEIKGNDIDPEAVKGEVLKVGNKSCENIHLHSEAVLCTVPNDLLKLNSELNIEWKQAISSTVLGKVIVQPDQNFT
From the text: The technology BRET, used in the step iii) of the process, is well known by the person skill in the art and will be detailed in the following examples. More particularly, BRET (Bioluminescence Resonance Energy Transfer) is a non-radiative energy transfer occurring between a bioluminescent donor (Renilla Luciferase (Rluc)) and a fluorescent acceptor, a mutant of GFP (Green Fluorescent Protein) or YFP (Yellow fluorescent protein). In the present case EYFP (Enhanced Yellow Fluorescent Protein) was used. The efficacy of transfer depends on the orientation and the distance between the donor and the acceptor. Then, the energy transfer can occur only if the two molecules are in close proximity (1-10 nm). This property is used to generate protein-protein interaction assays. Indeed, in order to study the interaction between two partners, the first one is genetically fused to the Renilla Luciferase and the second one to the yellow mutant of the GFP. Fusion proteins are generally, but not obligatory, expressed in mammalian cells. In presence of its membrane permeable substrate (coelenterazine), Rluc emits blue light. If the GFP mutant is closer than 10 nm from the Rluc, an energy transfer can occur and an additional yellow signal can be detected. The BRET signal is measured as the ratio between the light emitted by the acceptor and the light emitted by the donor. So the BRET signal will increase as the two fusion proteins are brought into proximity or if a conformational change bring Rluc and GFP mutant closer.
Then antibodies inhibiting at least 50% cell proliferation were evaluated as supernatants by BRET analysis on c-Met transfected cells. For that purpose, CHO stable cell lines expressing C-Met-Rluc or C-Met-Rluc and C-Met-K1100A-YFP were generated. Cells were distributed in white 96 well microplates in DMEM-F12/FBS 5% culture medium one or two days before BRET experiments. Cells were first cultured at 37° C. with CO2 5% in order to allow cell attachment to the plate. Cells were then starved with 200 μl DMEM/well overnight. Immediately prior to the experiment, DMEM was removed and cells quickly washed with PBS. Cells were incubated in PBS in the presence or absence of antibodies to be tested or reference compounds, 10 min at 37° C. prior to the addition of coelenterazine with or without HGF in a final volume of 50 μl. […]
BRET ratio has been defined previously [Angers et al., Proc. Natl. Acad. Sci. USA, 2000, 97:3684-3689] as: [(emission at 530 nm)−(emission at 485 nm)×Cf]/(emission at 485 nm), where Cf corresponds to (emission at 530 nm)/(emission at 485 nm) for cells expressing Rluc fusion protein alone in the same experimental conditions. […] For the sake of readability, results are expressed in milliBRET units (mBU); mBU corresponds to the BRET ratio multiplied by 1000.

Molecule: CCC1=C[C@@H]2CN(C1)Cc1c([nH]c3ccccc13)[C@@](C(=O)OC)(c1cc3c(cc1OC)N(C)[C@H]1[C@@](O)(C(=O)OC)[C@H](OC(C)=O)[C@]4(CC)C=CCN5CC[C@]31[C@@H]54)C2 [Navelbine®, reference compound]
- reduction of average tumor volume [1]: 76%

B1: 11E1 Fab: Fab fragment of mAb 11E1 generated by papain cleavage (antibody, V domains shown)
VH: QVQLQQSGAELAKPGASVKMSCKASGYTFTSYWMNWVKQRPGQGLEWIGYINPTTGSTDYNQKLKDKATLTADKSSNTAYMQLSSLTSEDSAVYYCAIGGYGSWFAYWGQGTLVTVSA
VL: QIVLTQSPAIMSASPGEKVTLTCSASSSVSSTYLYWYQQKPGSSPKLWIYTTSILASGVPARFSGSGSGTSYSLTISSMETEDAASYFCHQWSSYPFTFGSGTKLDIK
- Kon1 × 10^−6 [1/M · s] [2]: 1.13 ± 0.01 × 10^−6 [1/M · s]

B2: 227H1: murine anti-c-Met monoclonal antibody, IgG1 kappa; heavy chain SEQ ID No. 19, light chain SEQ ID No. 22 (antibody, V domains shown)
VH: EVQLQQSGPELVKPGASMKISCKASGYSFTDYTLNWVKQSHGKTLEWIGLINPYNGGTTYNQKFKGKATLTVDKSSSTAYMELLSLTSEDSAVYYCAREEITKDFDFWGQGTTLTVSS
VL: GIVLTQSPASLAVSLGQRATISCRVSESIDTYGNSFIHWYQQKPGQPPKLLIYRASNLESGIPARFSGSGSRTDFTLTINPVEADDSATYYCQQSNEDPFTFGSGTKLEMK
modifications: mus musculus
- agonist activity on cell proliferation [3]: without any agonist activity
- maximum of HGF binding displacement [4]: 100%
- binding to SEMA domain [5]: did not bind
- inhibition of in vivo growth of NCI-H441 [6]: inhibited significantly
- agonist effect on invasion, added alone [7]: No agonist effect
- inhibition of dimerization [8]: 52%

B3: 224G11 Fab: Fab fragment of mAb 224G11 generated by papain cleavage (antibody, V domains shown)
VH: EVQLQQSGPELVKPGASVKISCKTSGYIFTAYTMHWVRQSLGESLDWIGGIKPNNGLANYNQKFKGKATLTVDKSSSTAYMDLRSLTSEDSAVYYCARSEITTEFDYWGQGTALTVSS
VL: DIVLTQSPASLAVSLGQRATISCRASESVDSYANSFMHWYQQKPGQPPKLLIYRASNLESGIPARFSGSGSRTDFTLTINPVEADDVATYYCQQSKEDPLTFGSGTKLEMK
- Kon1 × 10^−6 [1/M · s] [2]: 2.04 ± 0.01 × 10^−6 [1/M · s]
